Measured values: the supplement of paper PMC9942255

System: Bacillus subtilis DB104 (SP-AmyQ fusion secretion)
Test: AmyQ secretion efficiency, weighted average sort bin (1 = best secretion, 10 = worst) (bin number (weighted average, 1-10)); higher = lower secretion efficiency
Outline: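 B. subtilis DB104 library expressing mature AmyQ fused to designed signal peptides (amyE-integrated) was encapsulated at about 0.3 cells per ~65 nL alginate bead with fluorescein-starch, grown about 13 h at room temperature and nile red stained. Occupied beads were sorted by large-particle flow cytometry into 10 equally populated bins by green/red fluorescence ratio, and each bin's amplicons were Illumina-sequenced. Secretion score is the read-frequency-weighted average bin number, normalised to beads per bin, excluding low-abundance sequences.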

| Sequence | AmyQ secretion efficiency |
| --- | --- |
| MKKKQVMLALTAAAGLGLTALHSAPAQKAAPL | 5.43 |
| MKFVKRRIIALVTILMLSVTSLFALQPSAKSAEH | 2.64 |
| MKKWLIIAVSLAIAIVLFMYTKGEAKAAGK | 2.87 |
| MKRKLKRKKAISALSLGLLVSAPTASFAAES | 4.1 |
| MKSCKQLIVCSLAAILLLIPSVSFAKRK | 2.42 |
| MKKRFFGPIILAFILFTASTAFTAIAGAIAIPS | 4.73 |
| MGLGKKLSVAVAASFMSLSISLPGVQVAEG | 3.6 |
| MFKKQSRATSALTFSLSLVLPLDGHAKAQEV | 6.63 |
| MRPVFPLILSAVLFLSCFRGARQTKASASKR | 7.54 |
| MKKRKVMLATALFLGLTPAGANAADL | 4.31 |
| MKNMSCKLVVSVTLFFSFLTIGPLAHWQNS | 5.85 |
| MKRIRIPMTLALGAALTIAPLKRKASAEEN | 7.5 |
| MNKKYGVLIVCIIFTSALFPTFSSVTAAQG | 1.02 |
| MRKNRILALFVLSLGLLSFMVTPSSTVSAASK | 2.01 |
| MKLAKRVSALTPSTTLAITAKGKEL | 7.3 |
| MKKWMAGLFLAAAVLLCLMIQGASS | 3.95 |
| MKKAFILSAAAAVGLFTFGGVQQISAKEL | 3.06 |
| MLKKIALTLCPAIVGSLLFFTAPASMHVS | 4.09 |
| MHLIRAAGAVCLAVVLIAGCRFNEDQHQAEGRRR | 5.26 |
| MRPQFPLILSAVLFLSCFFGARQTEASASKR | 4.77 |
| MRNLTKTSLLLAGLCTAAQMVFVTHISAEES | 3.9 |
| MNKFLKSNFRFLLAAALGISLLASSNFAKASND | 1.03 |
| MRFTKVVGFLSVLGLAAVFPLTAQGEKA | 2.12 |
| MKSKWMSGLLLVAVGFSFTQVMVHQGET | 6.96 |
| MKVLLSALLLLLFAFEPSRSGKKL | 6.31 |
| MIVIKRKRKRIIVFLSVIQPQPS | 8.52 |

| Sequence | AmyQ secretion efficiency |
| --- | --- |
| MKRLLVSLRVWMVFLMNWVTPDRKTAAPAVY | 6.03 |
| MKKQIITATTAVVLGSTLFAGARSAQSI | 3.67 |
| MIFTIVVGFLSVLGLAAVFPLTAQAEKA | 2.34 |
| MFNRLFRVCFLAALIMAFTLPNSVYNQKP | 6.82 |
| MKKVLMAFIICLSLILSVLAAPPSGAKAKRR | 2.43 |
| MRPVFPLILSAVLFLSCFKKKRRTRASASKR | 6.66 |
| MKKWIYVVLVLSIAGIGGFSNHAASS | 6.81 |
| MNKKYFVLIVCIIFTSALFPTRRRVTAAQG | 3.61 |
| MKRFSTAYLLLGILCSAAVFLIGAPSRALGAPD | 2.52 |
| MFNRLFRVCFLAALIMAFTLPNSVYIQKP | 7.01 |
| MMSRKILLSSALSLGMLVSAAPVLATSS | 3.37 |
| MKKTRQTLVILGALGTSYISADSS | 5.19 |
| MKIRKILLSSALSFGMLVISAVPALAAGT | 2.24 |
| MKWMCTKCCTYQQLAGGAAQAEAV | 7.81 |
| MKKWIYVVLVLSIAGIGGFSDHAASS | 6.49 |
| MRPVFPLILSAVLFLSCFFGARQTEGSASKR | 4.92 |
| MMSTIMSFVAVAALSTTAFGAHASAKEI | 4.72 |
| MRPVFPLILSAVLFLSCFFGARQTEASASPF | 2.82 |
| MPIKKKVMMCLAVTLVFGSMIFITLTNSGGFKE | 6.04 |
| MKKKLAAGLTASAIVGTTLVVTPVEAATI | 2.24 |
| MLKKKWMVGLLAGCLAAGKKKYNAFATEN | 7.66 |
| MRPVFPLILSAVLFLSCFFGARQTEASAEEE | 2.93 |
| MKKAFILSAAAAVGLFTFGGVQQASVKEL | 6.39 |
| MYSAIIIAIIAAVIVIAALITFNVRNASPG | 7.59 |
| MKVPKTMLLSTAAGLLLSLKKRSVSAHYV | 6.92 |
| MAIIIAIIAAVIVIAALITFNVGNASPG | 5.7 |

| Sequence | AmyQ secretion efficiency |
| --- | --- |
| MKKTIMFVAVAALSTTAFGAHASAKEI | 3 |
| MKKKLAAGLTASAIVGTTLVRKKKAEAATI | 8.06 |
| MRSYIKVLTMCFLGLILFVPTYLADNS | 7.74 |
| MRPVFPLILSAVLFLSCFFGARQTEHSASKR | 6.3 |
| MKRIRIPMTLALSAALIIALLSFASAEEN | 5.6 |
| MNLRKILLSSALSLGMLVSAAPYLATSS | 5.88 |
| MKKRLIQVMIMFTLLLRKRRSADAADS | 6.79 |
| MKRLKRRKLIGIMLLTFAPSAFAKQD | 4.68 |
| MGMKKKLSLGVASAALGLALVGGGTWCAFN | 4.28 |
| MRKTIFAFLTGLMMFFGTITAASASPD | 1.98 |
| MKKLLAAGIIGLLTVEDDEDDSFAAEK | 8.23 |
| MKRVLTGSVLSLGLLVSASPAFATSP | 1.56 |
| MKRLFMKASLVLFAVVFVFAVKGADAKAETH | 2.52 |
| MNLRKILLSSALSLGMLVSAAPVLATEE | 1.83 |
| MKKRLIAPMLKRKKRRAFFAMSGSAQAAAY | 7.88 |
| MKLSVKFLFIAGVLTVAAAAMTAKMYATAKGN | 4.51 |
| MKLAKRVSALTPSTTLAITQKAKEL | 5.63 |
| MKNMSCKLVVSVTLFFSFLDEDPLAHAQNS | 2.75 |
| MKFVKRRIIALVTILMLSVTSLFALQPSFTPSPFFTVAKAAEH | 2.95 |
| MKNMSCKLVVSVTLFFSFLTIGPLAHAQKR | 1.94 |
| MKSKGSIMACLILFSFTITTFINTETSSAFSN | 3.41 |
| MKKKIRRKKKKSAVVGSSMAAAPAEAKTI | 7.24 |
| MKKRLIAPMLLSAASLAFFAMSGSAQLAAY | 6.99 |
| MKVLLSALLLLLFARRKSASGKKL | 7.09 |
| MRSYIKVKKKCRLGLILFVPTALADNS | 6.78 |
| MKVCQKSIVRFLVFLIIFLFVIGTSVPFMANAQSD | 2.68 |

| Sequence | AmyQ secretion efficiency |
| --- | --- |
| MKRKTLSSLAISALSLGLLVSAPTASFAAES | 2.4 |
| MKKKIVAGLAVSAGSSMAAAPAEAKTI | 7.16 |
| MKLKSKLLLSCLALSTVFVRKRIANAPTH | 6.91 |
| MKKLLALLAVVAFAFTDSSKAKAAEA | 2.03 |
| MKRITINIRRKKIAAAVISLTGTAEAAEK | 6.82 |
| MNLRKILLSSALSLGMLVSAAPVLMTSS | 4.51 |
| MKSCKQLIVCSLAAILLLLSLTFIPSVSFAADS | 3.91 |
| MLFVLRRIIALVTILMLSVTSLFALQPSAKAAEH | 1.93 |
| MKKKLAAGLTASAIVGTTLVVTPPEAATI | 5.33 |
| MTLTSGFLLLSCLALSTVFVATTIANAPTH | 5.02 |
| MKKWMAGLFLAAAVLLCLMVPQQQQGASS | 6.69 |
| MKKKIVAGLAVSAVVRRRRAAAPAEAKTI | 7.4 |
| MMKKLFHSTLIVLLFFSFFGVQPGHAKKQ | 2.96 |
| MKKQIITATTAVVLGSTLFAGALSAQSI | 2.54 |
| MLKRTSFVSSGKYTTAVLLSILLPSGQAHAQSA | 2.65 |
| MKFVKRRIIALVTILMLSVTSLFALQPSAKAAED | 2.86 |
| MKKWMITIAMLILAGIALFVFISPPKSHKT | 5.84 |
| MNKKYFVLIVCIIFTSALFPTFSSITAAQG | 1.16 |
| MKKAFLVFLSVVLVTTVFLVKQQESVAQHKQL | 4.12 |
| MLKKKWMVGLLAGCLAAGGFSYNAFATEE | 3.49 |
| MKKRLIAPMLLSAASLAFFAMSGSAQPAAY | 5.92 |
| MGMKKKLSLGVASAALGLALVGGGQWAAFN | 5.94 |
| MRKKLKWLSFLLGFIILLFLFKKRKKRFSNNDS | 7.3 |
| MRPVFPLILSAVLFLSCFFGARQTEASHSKR | 2.35 |
| MKKRLIAPMLLSAASLAFFAMSGSAQGAAY | 4.34 |
| MMITWNVCLTALLSVLLVAGSVPFHAEAKKP | 3.89 |

| Sequence | AmyQ secretion efficiency |
| --- | --- |
| MKKRITYSLLALLAVVAFAFTDSSKSKAAEA | 3.09 |
| MNKRFFGPIILAFILFAGAIAIPS | 7.33 |
| MLKKVKRRRFILVGSTLGAFSFSSDASAKHV | 7.34 |
| MKKTIMSFVAVAALSTTAFGAHASAAKR | 2.03 |
| MGMKKKLSLGVASAALGLALVGGGTWKAFN | 5.21 |
| MKRLLSTLLIGIMLLTFAPSVFAKQD | 1.93 |
| MKLSVKIAGVLTVAAAAMDDEDDEATAKGN | 7.46 |
| MKSKGSIMACLILFSFTITTTINTETISAFSN | 5.95 |
| MKKQSMALVILGALGTSYISADSS | 5.2 |
| MKRIRIPMTLALGAALTIAPLSFASMEEN | 6.12 |
| MKKRKRRNFKRFIAAFLVLALMISLVPADFLAKST | 4.42 |
| MLKKKWMVGLLAGCLAAGGFSYNAFKTEN | 5.95 |
| MRKVITCVMAASLTLGSLLPAGYASAKED | 3.26 |
| MKKWIYVVLVLSIAGIGGFSVHSASS | 5.94 |
| MFKKHSTISLLIIFLLASAVLAKPIEAHTV | 1.86 |
| MKKRQIAPGLLSAASLAFFAMSGSAQAAAY | 4.58 |
| MKSKGSIMACLILFSFTITTFINTETGSISAFSN | 5.66 |
| MRMLWRSLALCGLALTLADDDCAQAAEP | 2.72 |
| MNLRKIKKSSALSLGMLVSAAPVLATSS | 5.42 |
| MKRIRIPMTLALGAALTIAPLSFGSAEEN | 4.51 |
| MKKAAAVLLSLGLVFGFSYGAGHVAESKTK | 4.52 |
| MNFKKTVVSALSISALALSVSGVASSHEI | 5.89 |
| MGLGKKLKKRKRRSFMSLSISLPGVQAAEG | 7.65 |
| MRKKKWMVGLLAGCLAAGGFSYNAFATEN | 3.58 |
